Test results: patent publication US20180185504A1 (Regeneron, published 2018)

T1: hPRLR.mmh (soluble monomeric human PRLR) (human)
T1 construct: called soluble monomeric PRLR protein
T1 chain: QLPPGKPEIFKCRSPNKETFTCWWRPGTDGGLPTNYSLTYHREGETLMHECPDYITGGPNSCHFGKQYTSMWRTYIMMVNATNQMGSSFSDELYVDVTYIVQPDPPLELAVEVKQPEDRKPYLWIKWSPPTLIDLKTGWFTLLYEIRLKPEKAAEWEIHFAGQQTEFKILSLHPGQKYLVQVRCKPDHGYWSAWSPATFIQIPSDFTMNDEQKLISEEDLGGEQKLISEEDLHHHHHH

T2: hPRLR.mFc (soluble dimeric human PRLR) (human)
T2 construct: dimeric PRLR construct
T2 chain: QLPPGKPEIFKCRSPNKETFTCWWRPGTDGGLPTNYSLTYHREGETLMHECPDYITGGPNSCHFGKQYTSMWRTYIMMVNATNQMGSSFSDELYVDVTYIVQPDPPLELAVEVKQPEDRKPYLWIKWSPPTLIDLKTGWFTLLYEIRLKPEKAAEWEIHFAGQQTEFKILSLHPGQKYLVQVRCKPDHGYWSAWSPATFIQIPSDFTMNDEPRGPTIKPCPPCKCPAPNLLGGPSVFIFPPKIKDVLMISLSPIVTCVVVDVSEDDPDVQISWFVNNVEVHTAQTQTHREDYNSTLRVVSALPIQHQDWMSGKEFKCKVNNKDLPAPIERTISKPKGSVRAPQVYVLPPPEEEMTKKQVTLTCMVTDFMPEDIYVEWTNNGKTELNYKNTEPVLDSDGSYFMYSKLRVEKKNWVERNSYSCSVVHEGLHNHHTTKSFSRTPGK

T3: macaca fascicularis (mf) PRLR.mmh (soluble monomeric monkey PRLR) (Macaca fascicularis)
T3 construct: called soluble monomeric PRLR protein
T3 chain: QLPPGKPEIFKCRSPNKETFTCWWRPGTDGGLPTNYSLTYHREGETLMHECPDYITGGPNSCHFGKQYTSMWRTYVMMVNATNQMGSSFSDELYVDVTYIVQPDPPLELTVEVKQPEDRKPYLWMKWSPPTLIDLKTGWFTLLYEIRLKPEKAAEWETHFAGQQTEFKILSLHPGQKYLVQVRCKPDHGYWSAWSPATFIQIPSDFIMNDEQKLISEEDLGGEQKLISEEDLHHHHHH


What was measured:
Assay in all cases: SPR Biacore, 25 C, mAb capture
[1] = molecular target: T1, hPRLR.mmh (soluble monomeric human PRLR)
Method: (§1) Measurements were conducted on a T200 Biacore instrument. Kinetic association (kₐ) and dissociation (kd) rate constants were determined by processing and fitting the data to a 1:1 binding model using Scrubber 2.0 curve fitting software.

[2] = molecular target: T2, hPRLR.mFc (soluble dimeric human PRLR)
Method: as §1

[3] = molecular target: T3, macaca fascicularis (mf) PRLR.mmh …
Method: as §1

Binder	Kd [1] [nM]	T½ [1] [h]	koff [1] [s⁻¹]	kon [1] [M⁻¹ s⁻¹]	Kd [2] [nM]	T½ [2] [h]	koff [2] [s⁻¹]	kon [2] [M⁻¹ s⁻¹]	Kd [3] [nM]	T½ [3] [h]	koff [3] [s⁻¹]	kon [3] [M⁻¹ s⁻¹]
H1H6765P (antibody, human IgG1, V domains shown, Human IgG1 Fc (H1H)) VH: EVQLVESGGGVVRPGGSLRLSCVGSGFSFDDHGMNWVRQGPGKGLEWVSGFNWNGGSTNYAESVKGRFTISRDNARNSLFLQMNSLRAEDTALYYCVRGRSGWFNDAFDVWGPGTMVTVSS VL: EIVLTQSPGTLSLSPGERATLSCRASQTINSNYLAWYRQKPGQTPRLLIYGTSSRATGIPDRFSGSGSGTDFSLTISRLEPEDFAVFYCQQYAGLPTFGPGTKVDIK	0.124	1.7	0.000113	907000	0.0392	5.65	3.41e-05	869000	0.254	1.43	0.000134	527000
H1H6782P (antibody, human IgG1, V domains shown, Human IgG1 Fc (H1H)) VH: EVQLVESGGGLVQPGRSLRLSCAASGFTFDDYAMHWVRQAPGKGLEWVSGIIWNSGHIGYGDSVKGRFTISRDNAKKSLYLQMNSLRAEDTALYYCARDSGRYQSYFDYWGQGTLVTVSS VL: DIQMTQSPSTLSASVGDRVTITCRASHIISSWLAWYQQKPGKAPKVLIFKASSLESGVPSRFSGSGSGTEFTLTISSLQPDDFATYYCQQYNTYSRTFGQGTKVEIK	0.685	0.783	0.000247	360000	0.225	2.7	7.13e-05	317000	1.05	0.683	0.000279	266000
H1H6966N (antibody, human IgG1, V domains shown, Tested with human IgG1 Fc (H1H); also called H2M6966N) VH: QVQLVQSGAEVQKPGASVKVSCKVSGYTLTALSIHWVRQAPGKGLEWMGNFDPGDGETIHAQKFQGRVTMTGDTSTDTAYMELSSLRSEDTAVYYCVGVTFDYWGQGTLVTVSS VL: EIVMTQSPATLSVSPGERATLSCRASQSVASNLAWYQQKPGQAPRLLLYGASTRATGIPARFSGSGSGTEFTLTISSLQSEDFALYYCQHYNNWPLTFGGGTKVEIK	0.302	0.748	0.000257	852000	0.0439	4.71	4.08e-05	931000	0.416	0.593	0.000325	782000
H1H6967N (antibody, human IgG1, V domains shown, Tested with human IgG1 Fc (H1H); also called H2M6967N) VH: EVQLVESGGDLVHPGRSLRLSCAASGFPFDEYAMHWVRQVPGKGLEWVSGISWSNNNIGYADSVKGRFTISRDNAKNSLYLQMNSLRPEDTAFYYCAKSGIFDSWGQGTLVTVSS VL: EIVMTQSPATLSVSPGERATLSCRASQSVSRDLAWYQQKPGQAPRLLIHGASTRATGIPARFSGSGSGAEFTLIISSLQSEDFAVYYCQQYNNWPLTFGGGTKVEIK	1.35	0.58	0.000332	246000	0.11	4.32	4.45e-05	407000	3.08	0.328	0.000585	190000
H1H6781P (antibody, human IgG1, V domains shown, Human IgG1 Fc (H1H)) VH: EVQLVESGGDLVQPGESLRLSCTASGFTFNSYEMNWVRQAPGKGLEWVSYISSSGGTKYYVDSVKGRFTISRDNAKKSLYLQMNSLRADDTALYYCARLNGVDVFDIWGQGTMVTVSS VL: DIQMTQSPSSLSASVGDRVTITCRASQDIFNYLAWFQQKPGKVPELLISAASTLQSGVPSRFSGSGSGTYFTLTISSLQPEDIATYYCQRYNSAPLTFGGGTKVEIK	0.61	1.52	0.000127	208000	0.236	3.18	6.05e-05	257000	0.986	1.37	0.000141	143000
H1H6785P (antibody, human IgG1, V domains shown, Human IgG1 Fc (H1H)) VH: EVQLVESGGGLVQPGGSLRLSCAASGFTFSSYEMNWVRQAPGKGLEWISYISSRGGTIYYADSIKGRFTIYRDNARNSLYLQMNSLRAEDTAIYYCARLSGVDIFDIWGQGTMVTVSS VL: DIQMTQSPSSLSASVGDRVTITCRASQGISNYLAWYQQKPGKVPKLLIYFASTLQSGVPSRFSGGGSGTDFTLTISSLQPEDVATYYCQRYNSAPLTFGGGTKVEIK	0.567	1.13	0.000171	301000	0.231	3.17	6.07e-05	263000	0.738	1.15	0.000167	227000
H1H6976N (antibody, human IgG1, V domains shown, Tested with human IgG1 Fc (H1H); also called H2M6976N) VH: EVQLLESGGGFVQPGGSLRLSCAASGFTFSSYAMSWVRQAPGKGLEWVSIISSNGRYTYYADSVKGRFTISRDNSKNTLYLQMNSLRAEDTAVYYCATVTGDWFDPWGQGTLVTVSS VL: DIQLTQSPSFLSASVGDRVTITCWASQDIDISLAWYQQKPGKAPKLLIYAASTLQSGVPSKFSGSGSGTDFTLTISSLQPEDFSTYYCQQLNSYPITFGQGTRLDIK	1.59	0.223	0.000864	544000	0.0906	1.91	0.000101	1.12e+06	1.75	0.237	0.000814	466000
H1H6774P (antibody, human IgG1, V domains shown, Human IgG1 Fc (H1H)) VH: EVQLVESGGGLAQPGGSLRLSCVASGFTFSTYWMSWVRQAPGKGLDWVGNIKQDGSEQNYVDSVRGRFTISRDNAKNSLFLQMNSLRAEDTGVYYCATLLTKGDYWGQGTLVTVSS VL: DIQMTQSPSSLSASVGDSVTITCRASQDISNYLDWFQQKPGKAPKSLIYAASILQGGVPSRFSGSGYGTDFTLTISSLQPEDFATYYCRQYKTYPFTFGPGTKVDIK	1.14	0.233	0.000818	715000	0.112	2.15	8.94e-05	798000	1.77	0.217	0.000875	495000
H1H6783P (antibody, human IgG1, V domains shown, Human IgG1 Fc (H1H)) VH: QVQLQQSGPGLVKPSQTLSLTCAISGDSVSSNTFAWNWIRQSPSRGLEWLGRTYYRSKWYIDYAESVKSRITITPDTSKNQFSLQLNSVTPEDTALYYCAGGYTYAPRGAFDIWGQGTMVTVSS VL: not shown	1.43	0.467	0.000413	288000	0.332	2.2	8.77e-05	264000	1.81	0.567	0.000341	189000
H1H6975N (antibody, human IgG1, V domains shown, Tested with human IgG1 Fc (H1H); also called H2M6975N) VH: EVHLVESGGGLVQPGGSLRLSCAASGFTFSSYEMNWVRQTPGKGLEWISHISSRSVIIYYADSVKGRFTISRDNAKNSLFLQMNSLRAEDTAVYFCAGITIFGIPEYWGQGTLVTVSS VL: EIVLTQSPATLSLSPGERATLSCRASQSVSSYFAWYQQKPGQAPRLLIYDASSRATGIPTRFSGSGSGTDFTLTISSLEPEDFAVYYCQQRSSWPITFGQGTRLEIK	0.49	2.62	7.35e-05	150000	0.0684	9.8	1.97e-05	287000	1.14	1.47	0.000131	115000
H1H6762P (antibody, human IgG1, V domains shown, Human IgG1 Fc (H1H)) VH: QVQLVESGGGVVQPGRSLRLSCAASGFTFSHYGMVWVRQPPGKGLEWVALISFDGTTKYYADSVKGRFTISRDNSKNTLYLQMNSLRAEDTAVYFCVGAIAAAAFDLWGRGTLVTVSS VL: EIVMTQSPATLSVSPGERATLSCRASQSVSSDLAWYQQKPGQAPRLLIYSASARATGIPARFTGSGSGTDFTLTISSLQSEDFAVYYCQQYNNWPMYTFGQGTKLEIK	0.259	1.07	0.000179	692000	0.0992	2.98	6.45e-05	651000	0.511	0.917	0.000208	408000
H1H6790P (antibody, human IgG1, V domains shown, Human IgG1 Fc (H1H)) VH: EVQLVESGGGLVQPGGSLRLSCAASGFTFSSYAMTWVRQAPGKGLEWVSAITGSVGNTYYADSVKGRFTISRDNSKNTLYLQMNSLGAEDTAEYYCAKGAGMTTNWYLDLWGRGTLVTVSS VL: DIVMTQSPDSLAVSLGARATINCKSSQSVLYSSNNQNYLTWYQQKPGQPPKLLIKWASTRESGVPDRFSGSGSGTDFTLTISSLQAEDVAVYYCQQYASSPYTFGQGTKLEIK	1.41	0.233	0.000799	565000	0.192	1.85	0.000104	542000	2.04	0.25	0.000793	389000
